This passage reports IC50, neutralization of RSV infection, Long strain results from patent US20110311515A1.

Substrate in this assay: F protein of RSV (hRSV strain Long LM-2) (hRSV strain Long) (UniProt P12568)
The experiment in a line: cell-based or functional assay.

Chain of F protein of RSV (hRSV strain Long LM-2) (hRSV strain Long) (P12568 26-574): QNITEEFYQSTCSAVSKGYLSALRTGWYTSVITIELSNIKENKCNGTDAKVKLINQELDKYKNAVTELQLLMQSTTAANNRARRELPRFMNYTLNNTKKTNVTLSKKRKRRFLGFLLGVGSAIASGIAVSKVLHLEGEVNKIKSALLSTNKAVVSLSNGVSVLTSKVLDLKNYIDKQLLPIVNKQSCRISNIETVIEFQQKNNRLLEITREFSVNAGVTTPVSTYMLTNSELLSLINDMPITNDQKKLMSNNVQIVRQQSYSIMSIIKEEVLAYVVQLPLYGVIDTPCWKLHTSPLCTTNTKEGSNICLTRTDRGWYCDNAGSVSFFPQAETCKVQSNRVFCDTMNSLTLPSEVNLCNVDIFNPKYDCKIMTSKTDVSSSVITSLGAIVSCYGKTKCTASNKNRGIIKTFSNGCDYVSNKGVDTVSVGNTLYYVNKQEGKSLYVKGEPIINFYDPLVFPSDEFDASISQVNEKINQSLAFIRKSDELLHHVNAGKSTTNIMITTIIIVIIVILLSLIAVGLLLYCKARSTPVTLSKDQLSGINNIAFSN

B1: RSV407 (VHH)
chain: EVQLVESGGGLVQAGGSLSISCAASGGSLSNYVLGWFRQAPGKEREFVAAINWRGDITIGPPNVEGRFTISRDNAKNTGYLQMNSLAPDDTAVYYCGAGTPLNPGAYIYDWSYDYWGRGTQVTVSSGGGGSGGGGSGGGGSEVQLVESGGGLVQAGGSLSISCAASGGSLSNYVLGWFRQAPGKEREFVAAINWRGDITIGPPNVEGRFTISRDNAKNTGYLQMNSLAPDDTAVYYCGAGTPLNPGAYIYDWSYDYWGRGTQVTVSSGGGGSGGGGSGGGGSEVQLVESGGGLVQAGGSLSISCAASGGSLSNYVLGWFRQAPGKEREFVAAINWRGDITIGPPNVEGRFTISRDNAKNTGYLQMNSLAPDDTAVYYCGAGTPLNPGAYIYDWSYDYWGRGTQVTVSSAAAEQKLISEEDLNGAAHHHHHH
In the case of B1, the IC50, neutralization of RSV infection, Long strain was 0.0001 µM.

B2: building block of RSV407 (monovalent Nanobody) (VHH)
VHH: EVQLVESGGGLVQAGGSLSISCAASGGSLSNYVLGWFRQAPGKEREFVAAINWRGDITIGPPNVEGRFTISRDNAKNTGYLQMNSLAPDDTAVYYCGAGTPLNPGAYIYDWSYDYWGRGTQVTVSS
As for B2, the IC50, neutralization of RSV infection, Long strain lay within 0.05 to 0.1 µM.
